According to patent US20220204643A1 (published 2022):

Assays:
[1] = target: T1, Dexd-box helicase 52 (human, UniProt Q9Y2R4 1-599); test: protein array
T1 construct: on protein array; also called DDX52
T1 sequence: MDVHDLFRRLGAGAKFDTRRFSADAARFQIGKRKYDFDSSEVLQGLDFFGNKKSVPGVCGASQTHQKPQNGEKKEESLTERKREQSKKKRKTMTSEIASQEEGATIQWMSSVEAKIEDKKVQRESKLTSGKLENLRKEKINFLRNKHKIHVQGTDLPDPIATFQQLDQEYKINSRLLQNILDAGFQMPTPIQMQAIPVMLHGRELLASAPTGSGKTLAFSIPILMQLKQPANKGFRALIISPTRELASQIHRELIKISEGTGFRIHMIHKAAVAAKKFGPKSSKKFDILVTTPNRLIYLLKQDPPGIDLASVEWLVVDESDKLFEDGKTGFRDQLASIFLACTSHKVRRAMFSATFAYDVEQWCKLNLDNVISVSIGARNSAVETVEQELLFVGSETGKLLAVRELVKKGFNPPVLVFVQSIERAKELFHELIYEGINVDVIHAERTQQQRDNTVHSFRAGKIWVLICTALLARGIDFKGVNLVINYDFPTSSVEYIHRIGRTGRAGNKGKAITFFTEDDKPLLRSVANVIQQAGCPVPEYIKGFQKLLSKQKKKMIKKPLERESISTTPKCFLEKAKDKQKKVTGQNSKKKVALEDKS

[2] = target: T2, G protein-coupled receptor 4 (human, UniProt P46093 1-362); test: protein array
T2 construct: on protein array; also called GPR4
T2 sequence (P46093 whole entry): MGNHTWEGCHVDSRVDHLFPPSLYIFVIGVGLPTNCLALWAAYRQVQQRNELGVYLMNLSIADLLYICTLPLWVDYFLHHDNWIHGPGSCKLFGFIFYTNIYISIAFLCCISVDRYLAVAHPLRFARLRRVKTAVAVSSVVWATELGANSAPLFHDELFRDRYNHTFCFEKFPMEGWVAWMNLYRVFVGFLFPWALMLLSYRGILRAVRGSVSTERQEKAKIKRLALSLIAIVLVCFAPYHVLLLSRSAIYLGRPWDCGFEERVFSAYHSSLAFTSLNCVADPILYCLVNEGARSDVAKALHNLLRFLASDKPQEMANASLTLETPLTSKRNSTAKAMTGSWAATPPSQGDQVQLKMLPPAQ

[3] = target: T3, G antigen 2A (human, UniProt Q6NT46 1-116); test: protein array
T3 construct: on protein array; also called GAGE2A
T3 sequence: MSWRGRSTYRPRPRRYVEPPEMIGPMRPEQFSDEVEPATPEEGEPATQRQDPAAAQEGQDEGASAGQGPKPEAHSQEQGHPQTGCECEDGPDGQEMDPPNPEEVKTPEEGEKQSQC

[4] = target: T4, proliferating cell nuclear antigen, transcript variant 1 (human, UniProt P12004 1-261); test: protein array
T4 construct: on protein array; also called PCNA
T4 sequence (P12004 whole entry, change not shown): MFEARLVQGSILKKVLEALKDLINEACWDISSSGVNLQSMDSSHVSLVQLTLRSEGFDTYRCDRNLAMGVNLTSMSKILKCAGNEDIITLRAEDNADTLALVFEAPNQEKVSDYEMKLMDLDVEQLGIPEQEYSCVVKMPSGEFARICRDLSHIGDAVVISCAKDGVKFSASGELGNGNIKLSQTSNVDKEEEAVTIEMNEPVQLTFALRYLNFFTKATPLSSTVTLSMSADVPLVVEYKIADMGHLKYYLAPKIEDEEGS

[5] = target: T5, BAF chromatin remodeling complex subunit BCL7C, transcript variant 2 (human, UniProt Q8WUZ0 1-217); test: protein array
T5 construct: on protein array

[6] = target: T6, influenza virus NS1A binding protein (human, UniProt Q9Y6Y0 1-642); test: protein array
T6 construct: on protein array; also called IVNS1ABP
T6 sequence: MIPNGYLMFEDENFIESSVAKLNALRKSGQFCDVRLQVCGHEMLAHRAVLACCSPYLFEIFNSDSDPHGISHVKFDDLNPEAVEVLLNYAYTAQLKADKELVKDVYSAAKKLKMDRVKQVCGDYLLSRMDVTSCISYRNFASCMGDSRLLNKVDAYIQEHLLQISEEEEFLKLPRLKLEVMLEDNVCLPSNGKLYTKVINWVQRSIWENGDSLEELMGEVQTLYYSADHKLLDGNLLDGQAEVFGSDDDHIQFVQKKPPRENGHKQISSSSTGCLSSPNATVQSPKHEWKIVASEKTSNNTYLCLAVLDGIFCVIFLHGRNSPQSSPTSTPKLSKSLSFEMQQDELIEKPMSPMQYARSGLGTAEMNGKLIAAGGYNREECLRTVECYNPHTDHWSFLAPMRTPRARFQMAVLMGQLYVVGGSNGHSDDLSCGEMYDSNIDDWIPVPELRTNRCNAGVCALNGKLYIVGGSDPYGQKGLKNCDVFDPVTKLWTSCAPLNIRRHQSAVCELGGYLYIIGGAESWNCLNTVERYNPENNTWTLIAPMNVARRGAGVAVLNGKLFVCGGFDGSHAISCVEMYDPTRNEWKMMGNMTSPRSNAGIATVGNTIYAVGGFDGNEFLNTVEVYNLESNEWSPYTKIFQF

[7] = target: T7, UTP6 small subunit processome component (human, UniProt Q9NYH9 1-597); test: protein array
T7 construct: on protein array
T7 sequence: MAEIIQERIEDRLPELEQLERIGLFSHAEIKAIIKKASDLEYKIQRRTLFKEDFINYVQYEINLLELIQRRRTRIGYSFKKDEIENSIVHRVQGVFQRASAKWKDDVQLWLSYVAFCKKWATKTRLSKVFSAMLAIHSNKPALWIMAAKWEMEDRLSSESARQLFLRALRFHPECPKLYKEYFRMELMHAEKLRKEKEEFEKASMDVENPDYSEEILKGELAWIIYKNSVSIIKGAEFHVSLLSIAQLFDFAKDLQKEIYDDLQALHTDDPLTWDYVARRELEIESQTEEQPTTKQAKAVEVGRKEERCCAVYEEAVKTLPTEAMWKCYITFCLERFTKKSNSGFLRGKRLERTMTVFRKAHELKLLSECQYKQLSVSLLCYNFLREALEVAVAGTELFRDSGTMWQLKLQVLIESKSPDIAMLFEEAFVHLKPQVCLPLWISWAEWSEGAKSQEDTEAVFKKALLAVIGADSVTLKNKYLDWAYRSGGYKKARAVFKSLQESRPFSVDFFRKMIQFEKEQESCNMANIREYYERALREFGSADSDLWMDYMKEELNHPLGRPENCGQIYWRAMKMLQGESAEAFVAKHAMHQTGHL

[8] = target: T8, zinc finger DHHC-type containing 1, transcript variant 1 (human, UniProt Q8WTX9 1-485)
T8 construct: HuProt array protein, full-length recombinant from yeast; also called ZDHHC1
T8 sequence: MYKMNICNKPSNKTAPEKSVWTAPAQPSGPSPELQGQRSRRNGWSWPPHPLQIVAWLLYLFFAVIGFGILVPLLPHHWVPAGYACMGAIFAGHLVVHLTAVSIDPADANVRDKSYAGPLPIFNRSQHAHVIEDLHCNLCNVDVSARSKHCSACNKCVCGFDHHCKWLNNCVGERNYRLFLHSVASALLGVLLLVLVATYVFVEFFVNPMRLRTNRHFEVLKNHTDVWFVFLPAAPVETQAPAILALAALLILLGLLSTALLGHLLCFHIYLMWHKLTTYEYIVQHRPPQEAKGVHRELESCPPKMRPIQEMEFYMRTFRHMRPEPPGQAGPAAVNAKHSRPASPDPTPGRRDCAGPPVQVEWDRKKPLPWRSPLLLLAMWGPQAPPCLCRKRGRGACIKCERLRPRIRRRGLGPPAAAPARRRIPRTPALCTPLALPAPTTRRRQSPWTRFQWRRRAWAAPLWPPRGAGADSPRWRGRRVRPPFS

[9] = target: T9, retinoid X receptor alpha, transcript variant 1 (human, UniProt P19793 1-462)
T9 construct: HuProt array protein, full-length recombinant from yeast; also called RXRA
T9 sequence: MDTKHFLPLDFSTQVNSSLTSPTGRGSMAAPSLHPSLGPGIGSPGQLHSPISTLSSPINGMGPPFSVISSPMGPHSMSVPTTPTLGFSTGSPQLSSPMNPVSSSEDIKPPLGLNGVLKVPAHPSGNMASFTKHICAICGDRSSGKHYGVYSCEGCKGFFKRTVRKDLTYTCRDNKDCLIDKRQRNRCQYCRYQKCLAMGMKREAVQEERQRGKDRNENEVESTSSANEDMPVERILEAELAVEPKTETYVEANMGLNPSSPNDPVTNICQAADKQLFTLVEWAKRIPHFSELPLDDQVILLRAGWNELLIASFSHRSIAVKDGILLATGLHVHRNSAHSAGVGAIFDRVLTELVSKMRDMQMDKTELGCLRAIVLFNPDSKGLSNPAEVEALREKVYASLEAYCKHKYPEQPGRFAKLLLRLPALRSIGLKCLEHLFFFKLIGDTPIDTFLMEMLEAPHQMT

B1: TTES1008 (antibody, V domains shown)
VH: QVQLVESGGGVVQPGRSLRLSCAASGFIFSSYGMHWVRQAPGKGLEWVAVISYDGSNKYYADSVKGRFTISRDKSKNTLHLQMNSLRAEDTAVYYCAKDSGSNDDMDVWGKGTTVTVSS
VL: QSVLTQPPSVSAAPGQKVTISCSGSSSNIGNNYVSWYQQLPGTAPKLLIYDNNKRPSGIPDRFSGSKSGTSATLGITGLQTGDEADYYCGTWDSSLSAGVFGTGTKVTVLG
notes: VH/VL tied via antigen in summary, not by name in this stretch
Q: Does B1 bind [1]?
A: binds

Q: Does B1 bind [2]?
A: binds

B2: TTES1012 (antibody, V domains shown)
VH: EVQLVESGGGLVQPGGSLRLSCAASGFTFSSYWMTWVRQAPGKGLEWVANIKQDGSEKYYVDSVKGRFTISRDNSKNSLYLQMNSLRAEDTAVYYCARAGYDLFGWFDPWGQGTLVTVSS
VL: SYELTQPPSVSVSPGQTARITCSGDALPKQYAYWYQQKPGQAPVLVIYKDSERPSGIPERFSGSSSGTTVTLTISGVQAEDEADYYCQSADSSGTYVFGTGTKVTVLG
notes: as for B1
Q: Does B2 bind [3]?
A: binds

B3: TTHY1002 (antibody, V domains shown)
VH: EVQVVESGGGLGQPGGSLRLSCAASGFTFSSYSMNWVRQAPGKGLEWVSYISSSSSTKYYADSVKGRFTISRDNAKKSLYLQMNSLRDEDTAVYYCASPVRPWGQGTLVTVSS
VL: EIVMTQSPATLSVSPGERATLSCRASQSVSSNLAWYQQKPGQAPRLLIYGASTRATGIPARFSGSGSGTEFTLTISSLQSEDFAIYYCQQYNSWPAFGGGTKVEIK
notes: as for B1
Q: Does B3 bind [4]?
A: binds

B4: TTHY1003 (antibody, V domains shown)
VH: QVQLVQSGAEMKKPGTSVKVSCRTSGYIFTGSFMHWVRQAPAQGLEWMGWINPKTGATYYTEKFKGRVTLTRDTSINTAYMEMTSLRSDDTAVYYCARGFCDLPACYPVPQYNWFDPWGQGTLVTVSS
VL: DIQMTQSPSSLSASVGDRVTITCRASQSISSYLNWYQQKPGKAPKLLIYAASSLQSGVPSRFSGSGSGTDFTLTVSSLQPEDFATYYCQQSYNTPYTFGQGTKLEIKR
notes: as for B1
Q: What does the source list for B4?
A: binding result [5]: binds; binding result [6]: binds

B5: TUCE1005 (antibody, V domains shown)
VH: QVQLQESGPGLVKPSETLSLTCTVSGGSISSYYWSWIRQPAGKGLEWIGRIYTSGSTNYNPSLKSRVTMSVDTSKNQFSLKMSSVTAADTAVYYCARGELLFDHWGQGTLVTVSS
VL: not shown
notes: as for B1
Q: Does B5 bind [7]?
A: binds

B6: TBLA1003 (antibody, V domains shown)
VH: EVQLVESGGGLIQPGRSLRLSCAASGFTFEDYAMHWVRQAPGKGLEWVSGISWNSGNIGYADSVKGRFTISRDNAKNSLYLQMHSLRPEDTALYYCAKDINFFGLGTGGGAMDVWGQGTTVTVSS
VL: DIQMTQSPSYVSASVGDRVTITCRASQGIDVWLAWYQQKPGKAPKLLIYTASSLQSGVPSRFSGSGGGTEFTLTISSLQPEDFATYYCQQSNSFPGTFGPGTKVDVKR
notes: detected with anti-human IgG Fc
Q: Does B6 bind [8]?
A: binds

B7: TBLA1004 (antibody, V domains shown)
VH: QITLKESGPTLVKPTQTLTLTCTFSGFSLSTSGVGVGWIRQPPGKALEWLALIYWDDDKRYSPSLKSRLTITKDTSKNQVVLTMTNMDPVDTATYYCAHRAIVGLFDYWGQGTLVTVSS
VL: PSVLTQPPSASGTPGQRVTISCSGSSSNIGSNYVYWYQQLPGTAPKFLIYRNNQRPSGVPDRFSGSKSGTSASLAISGLRSEDEADYYCAAWEDSLSGPVFGGGTKLTVL
notes: as for B6
Q: Does B7 bind [9]?
A: binds
